Measurements from US12102661B2.

target: Angioensin Converting Enzyme (ACE)

Compared with “papain hydrolysate of ginkgo protein (pool or library)”, “AS1.398 neutral protease hydrolysate of ginkgo protein (pool or library)” is higher in Inhibitory activity of hydrolysate (%): 73.2% for the first, 87.4% for the second.

First: Alcalase hydrolysate of ginkgo protein (pool or library)
Second: trypsin hydrolysate of ginkgo protein (pool or library)
The Inhibitory activity of hydrolysate (%) of the first is higher: 80.4% for the first, 61.3% for the second.

target: Angioensin Converting Enzyme (ACE); remark: another data set of the same source

First: Over 10 kDa concentrated solution of ginkgo protein hydrolysate (pool or library)
Second: Ultrafiltrate of 3-10 kDa of ginkgo protein hydrolysate (pool or library)
The ACE inhibitory activity (%) of the first is lower: 56.2% for the first, 72% for the second.

Work on “Ultrafiltrate below 3 kDa of ginkgo protein hydrolysate (pool or library)” yielded an ACE inhibitory activity (%) of 85.3%.
